Measurements from US20150299313A1 (Chugai, published 2015).

Legend:
[1] = biological target: T1, soluble human IL-6 receptor (human, UniProt P08887 20-357); assay: SPR (Biacore T100), pH 7.4, 37 C
T1 construct: also called hsIL-6R; hIL6R
T1 sequence: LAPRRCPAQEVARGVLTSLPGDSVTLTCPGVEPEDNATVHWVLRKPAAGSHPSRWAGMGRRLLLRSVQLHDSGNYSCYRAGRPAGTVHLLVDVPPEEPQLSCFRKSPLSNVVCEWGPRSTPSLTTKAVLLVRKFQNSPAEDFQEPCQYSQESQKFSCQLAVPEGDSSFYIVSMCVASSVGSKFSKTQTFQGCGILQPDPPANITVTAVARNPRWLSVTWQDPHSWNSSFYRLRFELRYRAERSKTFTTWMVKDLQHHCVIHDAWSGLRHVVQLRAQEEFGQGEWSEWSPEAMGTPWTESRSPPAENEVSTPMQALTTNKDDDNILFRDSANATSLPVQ
Protocol: (§1) All samples were measured at 37° C.
(§2) Individual parameters were calculated by use of Biacore T100 Evaluation Software (GE Healthcare).

[2] = biological target: T1, soluble human IL-6 receptor; assay: SPR (Biacore T100), 3 uM CaCl2, pH 7.4, 37 C; roughly calculated by Req=C*Rmax/(KD+C)+RI; 3 µM CaCl2; KD estimated by Expression 1
[3] = biological target: T1, soluble human IL-6 receptor; assay: SPR (Biacore T100), 3 uM CaCl2, pH 7.4, 37 C (summary table)
Protocol: as §1
From the sensorgram obtained by measurement, an association constant, ka (1/Ms) and a dissociation constant kd (1/s) as kinetics parameters were computationally obtained. From the values, KD (M) of each antibody to a human IL-6 receptor was calculated. Individual parameters were calculated by use of Biacore T100 Evaluation Software (GE Healthcare).
as §2

[4] = biological target: T1, soluble human IL-6 receptor; assay: SPR (Biacore T100), antibody captured on protein A, human IL-6 receptor as analyte, 37 C, pH 6.0
Protocol: (§3) Kinetic analysis on the antigen-antibody reaction between each of GL1-IgG1-SA (−), GL1-M111-SA (−), GL2-M111-SA (−), GL3-M111-SA (−), GL4-M111-SA (−), GL5-M111-SA (−), GL6-M111-SA (−), GL7-M111-SA (−), GL8-M111-SA (−), GL9-M111-SA (−), GL10-M111-SA (−) and a human IL-6 receptor was performed by use of Biacore T100 (GE Healthcare). An appropriate amount of protein A (Invitrogen) was immobilized onto Sensor chip CM5 (GE Healthcare) by the amine coupling method and then a target antibody was allowed to capture. Subsequently, a human IL-6 receptor dilution solution and a running buffer (a blank) were injected at a flow rate of 20 μL/min for 3 minutes to allow the human IL-6 receptor to interact with the antibody captured on the sensor chip. Either one of two types of running buffers pH 7.4 and pH 6.0 containing 10 mmol/L ACES, 150 mmol/L NaCl, and 0.05% (w/v) Tween20 was used and each buffer was employed for dilution of IL-6R. Thereafter, the running buffer was fed at a flow rate of 20 μL/min for 5 minutes. After observation of dissociation of the IL-6 receptor, 10 mmol/L Glycine-HCl (pH 1.5) was injected at a flow rate of 30 μL/min for 30 seconds to regenerate the sensor chip. All samples were measured at 37° C. From the sensorgram obtained by measurement, an association constant, ka (1/Ms) and a dissociation constant, kd (1/s) as kinetics parameters were computationally obtained. Based on the obtained values, KD (M) of each antibody to a human IL-6 receptor was calculated. Individual parameters were calculated by use of Biacore T100 Evaluation Software (GE Healthcare).

[5] = biological target: T1, soluble human IL-6 receptor; assay: SPR (Biacore T100), antibody captured on anti-human IgG F(ab')2, human IL-6 receptor as analyte, 37 C, pH 7.4
Protocol: (§4) Then, kinetic analysis of an antigen-antibody reaction between each of GL1-M111-SA (−) and GL5-M111-SA (−) and a human IL-6 receptor was performed by using Biacore T100 (GE Healthcare). In both cases, measurement was performed by using an antibody treated with sialidase as a sample. An appropriate amount of Anti-Human IgG (γ-chain specific) F(ab′)2 fragment antibody produced in goat (Sigma) was immobilized onto Sensor chip CM5 (GE Healthcare) in accordance with the amine coupling method and then a target antibody was allowed to capture. Subsequently, a human IL-6 receptor dilution solution and a running buffer (a blank) were injected at a flow rate of 20 μL/min for 3 minutes to allow the human IL-6 receptor to interact with the antibody captured on the sensor chip. Either one of two types of running buffers pH 7.4 and pH 6.0 containing 10 mmol/L ACES, 150 mmol/L NaCl, and 0.05% (w/v) Tween20 was used, and each buffer was employed for dilution of IL-6R. Thereafter, a running buffer was fed at a flow rate 20 μL/min for 5 minutes. After dissociation of the IL-6 receptor was observed, 10 mmol/L Glycine-HCl (pH 1.5) was injected at a flow rate 30 μL/min for 5 seconds. […] All samples were measured at 37° C. […] From the values, KD (M) of each antibody to a human IL-6 receptor was calculated. Individual parameters were calculated by use of Biacore T100 Evaluation Software (GE Healthcare).

[6] = biological target: T1, soluble human IL-6 receptor; assay: SPR (Biacore T100), antibody captured on protein A, human IL-6 receptor as analyte, 37 C, pH 7.4
Protocol: as §3

[7] = biological target: T1, soluble human IL-6 receptor; assay: SPR (Biacore T100), antibody captured on anti-human IgG F(ab')2, human IL-6 receptor as analyte, 37 C, pH 6.0
Protocol: as §4

[8] = biological target: T1, soluble human IL-6 receptor; assay: SPR (Biacore T100), antibody captured on anti-human IgG F(ab')2, human IL-6 receptor as analyte, 37 C, pH 7.4; remark: listed apart in the source
Protocol: (§5) Using Biacore T100 (GE Healthcare), kinetic analysis of antigen-antibody reactions between each of GL1-IgG1_kif+ and GL5-IgG1_kif+ and a human IL-6 receptor was performed. An appropriate amount of Anti-Human IgG (γ-chain specific) F(ab′)2 fragment antibody produced in goat (Sigma) was immobilized onto Sensor chip CM5 (GE Healthcare) by the amine coupling method and then a target antibody was allowed to capture. Subsequently, a human IL-6 receptor dilution solution and a running buffer (a blank) were injected at a flow rate of 20 μL/min for 3 minutes to allow the human IL-6 receptor to interact with the antibody captured on the sensor chip. Either one of two types of running buffers (pH 7.4 and pH 6.0 containing 10 mmol/L ACES, 150 mmol/L NaCl, and 0.05% (w/v) Tween20) was used, and each buffer was employed for dilution of IL-6R. Thereafter, a running buffer was fed at a flow rate 20 μL/min for 5 minutes. After dissociation of the IL-6 receptor was observed, a 10 mmol/L Glycine-HCl (pH 1.5) solution was injected at a flow rate of 30 μL/min for 5 seconds. This procedure was repeated five times to regenerate the sensor chip. All samples were measured at 37° C. […] From the values, KD (M) of each antibody to a human IL-6 receptor was calculated. Individual parameters were calculated by use of Biacore T100 Evaluation Software (GE Healthcare).

[9] = biological target: T1, soluble human IL-6 receptor; assay: SPR (Biacore T100), antibody captured on anti-human IgG F(ab')2, human IL-6 receptor as analyte, 37 C, pH 6.0; remark: listed apart in the source
Protocol: as §5

B1: FH4-IgG1 (antibody, V domains shown)
VH: QVQLVQSGAEVKKPGSSVKVSCKASGGTFSSYAISWVRQAPGQGLEWMGGIIPIFGTANYAQKFQGRVTITADESTSTAYMELSSLRSEDTAVYYCARERDYYDSSGYYDAFDIWGQGTMVTVSS
VL: ETTVTQSPSFLSASVGDRVTITCITTTDIDDDMNWFQQEPGKAPKLLISEGNILRPGVPSRFSSSGYGTDFTLTISKLQPEDFATYYCLQSDNLPFTFGQGTKLEIKR
notes: Ca-dependent anti-IL-6R antibody from a human phage library
B1 was tested, and the “Ca dependency (KD at 3 uM CaCl2 against KD at 2 mM CaCl2)” value [1] was no less than 60 fold, the Kd [2] was roughly 34000 nM and the Kd [3] was no less than 34000 nM.

B2: 6RL#9-IgG1 (antibody, V domains shown)
VH: QVQLVQSGAEVKKPGASVKVSCKASGYTFTSYYMHWVRQAPGQGLEWMGIINPSGGSTSYAQKFQGRVTMTRDTSTSTVYMELSSLRSEDTAVYYCARDDPGGGEYYFDYWGQGTLVTVSS
VL: QSVLTQPPSVSGAPGQRVTISCTGSRSNMGAGYDVHWYQLLPGAAPKLLISHNTHRPSGVPDRFSGSKSGASASLAITGLQAEDEADYYCQSHDSSLSAVVFGGGTKLTVLS
notes: as for B1
For B2, the “Ca dependency (KD at 3 uM CaCl2 against KD at 2 mM CaCl2)” value [1] was no less than 120 fold, the Kd [2] was roughly 31000 nM and the Kd [3] was no less than 31000 nM.

B3: GL1-M111-SA (-) (antibody, human IgG1, kappa, N297A)
heavy: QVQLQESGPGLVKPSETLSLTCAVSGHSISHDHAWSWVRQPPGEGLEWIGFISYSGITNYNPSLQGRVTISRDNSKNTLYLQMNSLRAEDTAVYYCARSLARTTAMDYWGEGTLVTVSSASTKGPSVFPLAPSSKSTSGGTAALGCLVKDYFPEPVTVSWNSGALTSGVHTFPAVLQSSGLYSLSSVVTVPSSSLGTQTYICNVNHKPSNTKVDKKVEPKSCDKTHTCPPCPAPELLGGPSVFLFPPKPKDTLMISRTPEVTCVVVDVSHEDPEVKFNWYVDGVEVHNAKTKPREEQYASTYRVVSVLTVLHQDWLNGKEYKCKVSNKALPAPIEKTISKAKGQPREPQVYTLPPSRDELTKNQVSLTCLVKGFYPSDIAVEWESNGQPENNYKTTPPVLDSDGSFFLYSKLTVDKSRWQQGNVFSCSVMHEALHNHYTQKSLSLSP
light: DIQMTQSPSSLSASVGDSVTITCQASTDISSHLNWYQQKPGKAPELLIYYGSHLLSGVPSRFSGSGSGTDFTFTISSLEAEDAATYYCGQGNRLPYTFGQGTKVEIERTVAAPSVFIFPPSDEQLKSGTASVVCLLNNFYPREAKVQWKVDNALQSGNSQESVTEQDSKDSTYSLSSTLTLSKADYEKHKVYACEVTHQGLSSPVTKSFNRGEC
notes: No sugar chain on heavy or light chain; treated with neuraminidase
Binder B3 has a Kd [4] of 150 nM, a Kd [5] of 2 nM and a Kd [6] of 1.8 nM. It also gave a Kd [7] of 66 nM.

B4: GL1-IgG1_kif+ (antibody)
heavy: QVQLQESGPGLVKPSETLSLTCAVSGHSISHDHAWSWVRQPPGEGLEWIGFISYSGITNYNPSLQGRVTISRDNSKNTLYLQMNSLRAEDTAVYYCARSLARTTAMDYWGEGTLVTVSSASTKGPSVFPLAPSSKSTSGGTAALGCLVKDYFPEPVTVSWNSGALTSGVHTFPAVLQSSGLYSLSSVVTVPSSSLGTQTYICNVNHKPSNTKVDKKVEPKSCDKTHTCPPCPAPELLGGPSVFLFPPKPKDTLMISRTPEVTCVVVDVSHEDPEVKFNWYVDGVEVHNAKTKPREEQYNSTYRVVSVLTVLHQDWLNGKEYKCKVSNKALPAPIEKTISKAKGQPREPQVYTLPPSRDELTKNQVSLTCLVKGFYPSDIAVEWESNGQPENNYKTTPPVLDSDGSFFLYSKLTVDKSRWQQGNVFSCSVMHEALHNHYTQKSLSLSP
light: DIQMTQSPSSLSASVGDSVTITCQASTDISSHLNWYQQKPGKAPELLIYYGSHLLSGVPSRFSGSGSGTDFTFTISSLEAEDAATYYCGQGNRLPYTFGQGTKVEIERTVAAPSVFIFPPSDEQLKSGTASVVCLLNNFYPREAKVQWKVDNALQSGNSQESVTEQDSKDSTYSLSSTLTLSKADYEKHKVYACEVTHQGLSSPVTKSFNRGEC
modifications: high mannose sugar chain (expressed in the presence of kifunensine)
notes: Expressed with 10 ug/mL kifunensine in the culture; also called GL1-G1_kif+
With B4 the Kd [8] was 1.5 nM and the Kd [9] was 71 nM.

B5: GL5-IgG1_kif+ (antibody)
heavy: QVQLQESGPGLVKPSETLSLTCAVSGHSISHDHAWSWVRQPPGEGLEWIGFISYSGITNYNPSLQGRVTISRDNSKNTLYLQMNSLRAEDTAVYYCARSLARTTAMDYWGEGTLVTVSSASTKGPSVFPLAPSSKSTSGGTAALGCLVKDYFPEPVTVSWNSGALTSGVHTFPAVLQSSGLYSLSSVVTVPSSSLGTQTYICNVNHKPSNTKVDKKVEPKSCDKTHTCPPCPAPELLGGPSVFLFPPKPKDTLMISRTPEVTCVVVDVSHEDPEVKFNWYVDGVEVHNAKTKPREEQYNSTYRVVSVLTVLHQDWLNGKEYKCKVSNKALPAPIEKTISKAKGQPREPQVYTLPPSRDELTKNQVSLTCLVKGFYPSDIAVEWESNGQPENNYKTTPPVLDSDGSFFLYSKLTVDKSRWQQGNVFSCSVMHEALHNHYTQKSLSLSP
light: DIQMTQSPSSLSASVGDNVTITCNASTDISSHLNWYQQKPGKAPELLIYYGSHLLSGVPSRFSGSGSGTDFTFTISSLEAEDAATYYCGQGNRLPYTFGQGTKVEIERTVAAPSVFIFPPSDEQLKSGTASVVCLLNNFYPREAKVQWKVDNALQSGNSQESVTEQDSKDSTYSLSSTLTLSKADYEKHKVYACEVTHQGLSSPVTKSFNRGEC
modifications: two high mannose N-linked sugar chains (Man6-Man9 with Man9) on the light chain; high mannose sugar chain (expressed in the presence of kifunensine)
notes: Expressed with 10 ug/mL kifunensine in the culture; also called GL5-G1_kif+
In the case of B5, the Kd [8] is reported as 1.4 nM and the Kd [9] is reported as 66 nM.

B6: GL5-M111-SA (-) (antibody, human IgG1, kappa, N297A)
heavy: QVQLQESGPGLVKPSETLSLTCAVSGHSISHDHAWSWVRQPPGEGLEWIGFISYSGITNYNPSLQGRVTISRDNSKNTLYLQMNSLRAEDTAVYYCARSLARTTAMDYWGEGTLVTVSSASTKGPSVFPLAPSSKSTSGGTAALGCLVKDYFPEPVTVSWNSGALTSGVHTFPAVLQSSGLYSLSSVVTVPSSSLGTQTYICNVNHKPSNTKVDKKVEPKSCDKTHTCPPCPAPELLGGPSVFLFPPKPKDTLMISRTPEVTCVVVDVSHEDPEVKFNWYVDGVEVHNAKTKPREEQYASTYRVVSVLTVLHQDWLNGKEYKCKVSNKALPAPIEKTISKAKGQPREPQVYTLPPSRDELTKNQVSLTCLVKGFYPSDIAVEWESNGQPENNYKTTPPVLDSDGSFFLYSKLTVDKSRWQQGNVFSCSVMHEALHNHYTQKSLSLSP
light: DIQMTQSPSSLSASVGDNVTITCNASTDISSHLNWYQQKPGKAPELLIYYGSHLLSGVPSRFSGSGSGTDFTFTISSLEAEDAATYYCGQGNRLPYTFGQGTKVEIERTVAAPSVFIFPPSDEQLKSGTASVVCLLNNFYPREAKVQWKVDNALQSGNSQESVTEQDSKDSTYSLSSTLTLSKADYEKHKVYACEVTHQGLSSPVTKSFNRGEC
modifications: two N-linked complex sugar chains (G2/G3/G4 combinations) at the sites introduced by Thr 20 to Asn and Gln 24 to Asn (Kabat), sialic acid removed, terminal galactose exposed
notes: Treated with neuraminidase
B6 showed a Kd [4] of 99 nM, a Kd [5] of 1.9 nM and a Kd [6] of 1.5 nM. The Kd [7] was 57 nM.
